Measured values: patent US20100196266A1 (published 2010)

How the values were obtained:
[1] = target: T1, human CD74 on cells (human, UniProt P04233 1-296); assay: flow cytometry, K562 (CML) cells; no mAb 3.2
T1 construct: whole, on cells
T1 sequence (looked up): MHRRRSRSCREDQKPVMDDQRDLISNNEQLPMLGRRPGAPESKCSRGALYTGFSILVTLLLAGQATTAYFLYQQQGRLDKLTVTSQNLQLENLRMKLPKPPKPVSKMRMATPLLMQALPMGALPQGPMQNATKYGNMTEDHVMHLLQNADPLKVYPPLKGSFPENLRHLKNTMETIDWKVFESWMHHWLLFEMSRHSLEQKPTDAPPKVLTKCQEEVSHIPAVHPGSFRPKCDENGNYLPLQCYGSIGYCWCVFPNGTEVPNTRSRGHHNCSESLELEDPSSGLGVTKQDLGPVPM

[2] = target: T1, human CD74 on cells; assay: flow cytometry, GDM-1 (AML) cells; no mAb 16.8
[3] = target: T1, human CD74 on cells; assay: flow cytometry, RS4;11 (ALL) cells; no mAb 6.4
[4] = target: T1, human CD74 on cells; assay: flow cytometry, MN60 (ALL) cells; no mAb 8.1
[5] = target: T1, human CD74 on cells; assay: flow cytometry, REH (ALL) cells; no mAb 3.9
[6] = target: T1, human CD74 on cells; assay: flow cytometry, Granta-519 (MCL) cells; no mAb 15.3
[7] = target: T1, human CD74 on cells; assay: indirect flow cytometry, Namalwa cells, FITC-GAM; none 2.91
[8] = target: T1, human CD74 on cells; assay: flow cytometry, 697 (ALL) cells; no mAb 4.9
[9] = target: T1, human CD74 on cells; assay: flow cytometry, Kasumi-1 (AML) cells; no mAb 18.2
[10] = target: T1, human CD74 on cells; assay: flow cytometry, WAC (CLL) cells; no mAb 15.8
[11] = target: T1, human CD74 on cells; assay: flow cytometry, HC-1 (hairy cell leukemia) cells; no mAb 4.8
[12] = target: T1, human CD74 on cells; assay: flow cytometry, Kasumi-3 (AML) cells; no mAb 9.6
[13] = target: T1, human CD74 on cells; assay: flow cytometry, MEC-1 (CLL) cells; no mAb 4.7
[14] = target: T1, human CD74 on cells; assay: flow cytometry, Jeko-1 (MCL) cells; no mAb 14.3
[15] = target: T2, human CD20 on cells (human, UniProt P11836 1-297); assay: indirect flow cytometry, Namalwa cells, FITC-GAM; none 2.91
T2 construct: whole, on cells
T2 sequence (looked up): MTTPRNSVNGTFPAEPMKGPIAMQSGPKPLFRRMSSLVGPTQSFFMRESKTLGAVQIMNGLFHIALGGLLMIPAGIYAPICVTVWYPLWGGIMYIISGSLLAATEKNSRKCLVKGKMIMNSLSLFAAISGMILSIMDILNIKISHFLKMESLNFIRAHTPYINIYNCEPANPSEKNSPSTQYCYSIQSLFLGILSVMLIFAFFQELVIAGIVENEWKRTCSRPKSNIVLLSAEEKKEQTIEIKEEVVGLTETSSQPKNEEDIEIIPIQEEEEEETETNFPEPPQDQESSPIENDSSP

[16] = target: T3, human CD22 on cells (human, UniProt P20273 20-847); assay: flow cytometry, K562 (CML) cells; no mAb 3.2
T3 construct: whole, on cells

[17] = target: T3, human CD22 on cells; assay: flow cytometry, GDM-1 (AML) cells; no mAb 16.8
[18] = target: T3, human CD22 on cells; assay: flow cytometry, RS4;11 (ALL) cells; no mAb 6.4
[19] = target: T3, human CD22 on cells; assay: flow cytometry, MN60 (ALL) cells; no mAb 8.1
[20] = target: T3, human CD22 on cells; assay: flow cytometry, REH (ALL) cells; no mAb 3.9
[21] = target: T3, human CD22 on cells; assay: flow cytometry, Granta-519 (MCL) cells; no mAb 15.3
[22] = target: T3, human CD22 on cells; assay: indirect flow cytometry, Namalwa cells, FITC-GAM; none 2.91
[23] = target: T3, human CD22 on cells; assay: flow cytometry, 697 (ALL) cells; no mAb 4.9
[24] = target: T3, human CD22 on cells; assay: flow cytometry, Kasumi-1 (AML) cells; no mAb 18.2
[25] = target: T3, human CD22 on cells; assay: flow cytometry, WAC (CLL) cells; no mAb 15.8
[26] = target: T3, human CD22 on cells; assay: flow cytometry, HC-1 (hairy cell leukemia) cells; no mAb 4.8
[27] = target: T3, human CD22 on cells; assay: flow cytometry, Kasumi-3 (AML) cells; no mAb 9.6
[28] = target: T3, human CD22 on cells; assay: flow cytometry, MEC-1 (CLL) cells; no mAb 4.7
[29] = target: T3, human CD22 on cells; assay: flow cytometry, Jeko-1 (MCL) cells; no mAb 14.3
[30] = target: T4, human leukocyte antigen-DR (HLA-DR) on human lymphoma and leukemia cell lines and human lymphocytes (human); assay: flow cytometry, K562 (CML) cells; no mAb 3.2
[31] = target: T4, human leukocyte antigen-DR (HLA-DR) on …; assay: flow cytometry, GDM-1 (AML) cells; no mAb 16.8
[32] = target: T4, human leukocyte antigen-DR (HLA-DR) on …; assay: flow cytometry, RS4;11 (ALL) cells; no mAb 6.4
[33] = target: T4, human leukocyte antigen-DR (HLA-DR) on …; assay: flow cytometry, MN60 (ALL) cells; no mAb 8.1
[34] = target: T4, human leukocyte antigen-DR (HLA-DR) on …; assay: flow cytometry, REH (ALL) cells; no mAb 3.9
[35] = target: T4, human leukocyte antigen-DR (HLA-DR) on …; assay: flow cytometry, Granta-519 (MCL) cells; no mAb 15.3
[36] = target: T4, human leukocyte antigen-DR (HLA-DR) on …; assay: indirect flow cytometry, Namalwa cells, FITC-GAM; none 2.91
[37] = target: T4, human leukocyte antigen-DR (HLA-DR) on …; assay: flow cytometry, 697 (ALL) cells; no mAb 4.9
[38] = target: T4, human leukocyte antigen-DR (HLA-DR) on …; assay: flow cytometry, Kasumi-1 (AML) cells; no mAb 18.2
[39] = target: T4, human leukocyte antigen-DR (HLA-DR) on …; assay: flow cytometry, WAC (CLL) cells; no mAb 15.8
[40] = target: T4, human leukocyte antigen-DR (HLA-DR) on …; assay: flow cytometry, HC-1 (hairy cell leukemia) cells; no mAb 4.8
[41] = target: T4, human leukocyte antigen-DR (HLA-DR) on …; assay: flow cytometry, Kasumi-3 (AML) cells; no mAb 9.6
[42] = target: T4, human leukocyte antigen-DR (HLA-DR) on …; assay: flow cytometry, MEC-1 (CLL) cells; no mAb 4.7
[43] = target: T4, human leukocyte antigen-DR (HLA-DR) on …; assay: flow cytometry, Jeko-1 (MCL) cells; no mAb 14.3

B1: murine LL1 (anti-human CD74) (antibody, V domains shown)
VH: QIQLVQSGPELKKPGETVKVTCKTSGYTFTNYGVNWIKQTPGEGLQWMGWINPNTGEPTFDDDFKGRFAFSLESSASTAFLQISNLKNEDMGTYFCSRSRGKNEAWFAYWGQGTLVTVSE
VL: DVVMTQTPLSLPVSLGDQASISCRSSQSLVHRNGNTYLHWYLQKPGQSPKLLIYTVSNRFSGVPDRFSGSGSGTDFTLKISRVEAEDLGLYFCSQSSHVPPTFGAGTKLEI
mean FL [1]: 7
mean FL [2]: 69.5
mean FL [3]: 24.3
mean FL [4]: 25.9
mean FL [5]: 61.1
mean FL [6]: 50.8
GEO MEAN Fluorescence [7]: 17.3
mean FL [8]: 20.6
mean FL [9]: 23.8
mean FL [10]: 43.6
mean FL [11]: 36.7
mean FL [12]: 18.4
mean FL [13]: 44.7
mean FL [14]: 32.7

B2: 1F5 (murine anti-CD20 mAb) (antibody, V domains shown)
VH: QVQLRQPGAELVKPGASVKMSCKASGYTFTSYNMHWVKQTPGQGLEWIGAIYPGNGDTSYNQKFKGKATLTADKSSSTAYMQLSSLTSEDSAVYYCARSHYGSNYVDYFDYWGQGTTLTVSS
VL: DIVLSQSPAILSASPGEKVTMTCRASSSLSFMHWYQQKPGSSPKPWIYATSNLASGVPARFSGSGSGTSYSLTISRVEAEDAATYFCHQWSSNPLTFGAGTKLELK
GEO MEAN Fluorescence [15]: 3.83

B3: murine LL2 (anti-human CD22) (antibody, V domains shown)
VH: QVQLQESGAELSKPGASVKMSCKASGYTFTSYWLHWIKQRPGQGLEWIGYINPRNDYTEYNQNFKDKATLTADKSSSTAYMQLSSLTSEDSAVYYCARRDITTFYWGQGTTLTVSS
VL: DIQLTQSPSSLAVSAGENVTMSCKSSQSVLYSANHKNYLAWYQQKPGQSPKLLIYWASTRESGVPDRFTGSGSGTDFTLTISRVQVEDLAIYYCHQYLSSWTFGGGTKLEIKR
mean FL [16]: 4.3
mean FL [17]: 28.5
mean FL [18]: 20.9
mean FL [19]: 17.1
mean FL [20]: 16.8
mean FL [21]: 28.6
GEO MEAN Fluorescence [22]: 10.5
mean FL [23]: 15.9
mean FL [24]: 20.9
mean FL [25]: 20.1
mean FL [26]: 17.8
mean FL [27]: 13.9
mean FL [28]: 49
mean FL [29]: 25

B4: murine monoclonal antibody L243 (mL243) (antibody, V domains shown)
VH: QIQLVQSGPELKKPGETVKISCKASGFTFTNYGMNWVKQAPGKGLKWMGWINTYTREPTYADDFKGRFAFSLETSASTAYLQINNLKNEDTAKYFCARDITAVVPTGFDYWGQGTTLTVSS
VL: DIQMTQSPASLSVSVGETVTITCRASENIYSNLAWYRQKQGKSPQLLVFAASNLADGVPSRFSGSGSGTQYSLKINSLQSEDFGDYYCQHFWTTPWAFGGGTNLEIKR
notes: Murine IgG2a from hybridoma ATCC HB55; also called murine L243; mL234
mean FL [30]: 4.9
mean FL [31]: 1070
mean FL [32]: 152
mean FL [33]: 1220
mean FL [34]: 2090
mean FL [35]: 2110
GEO MEAN Fluorescence [36]: 595
mean FL [37]: 259
mean FL [38]: 24
mean FL [39]: 788
mean FL [40]: 515
mean FL [41]: 565
mean FL [42]: 1700
mean FL [43]: 1900
